Tests used:
Test in all cases: cell-based or functional assay
[1] = target: HIV-1 Env of pseudovirus 89-F1_2_25 (HIV-1)
[2] = target: HIV-1 Env of pseudovirus BJOX009000.02.4 (HIV-1)
[3] = target: HIV-1 Env of pseudovirus 211-9 (HIV-1)
[4] = target: HIV-1 Env of pseudovirus T255-34 (HIV-1)
[5] = target: HIV-1 Env of pseudovirus P1981_C5_3 (HIV-1)
[6] = target: HIV-1 Env of pseudovirus C4118.c09 (HIV-1)
[7] = target: HIV-1 Env of pseudovirus BJOX010000.06.2 (HIV-1)
[8] = target: HIV-1 Env of pseudovirus CNE8 (HIV-1)
[9] = target: HIV-1 Env of pseudovirus T250-4 (HIV-1)
[10] = target: HIV-1 Env of pseudovirus 191955_A11 (HIV-1)
[11] = target: HIV-1 Env of pseudovirus 191084 B7-19 (HIV-1)

**Q.** Which IC50 neutralization (TZM.bl) [1] does the source give for PG16 (antibody) here?
**A.** 47.6 µg/mL

**Q.** What about the IC80 neutralization (TZM.bl) [1] of the same substance?
**A.** > 50 µg/mL

**Q.** And the IC50 neutralization (TZM.bl) [2]?
**A.** 1.19 µg/mL

**Q.** And the IC80 neutralization (TZM.bl) [2]?
**A.** 22.1 µg/mL

**Q.** And the IC50 neutralization (TZM.bl) [3]?
**A.** 0.029 µg/mL

**Q.** And the IC80 neutralization (TZM.bl) [3]?
**A.** 0.144 µg/mL

**Q.** What about the IC50 neutralization (TZM.bl) [4] of the same substance?
**A.** 0.024 µg/mL

**Q.** What about the IC80 neutralization (TZM.bl) [4] of the same substance?
**A.** 0.125 µg/mL

**Q.** What about the IC50 neutralization (TZM.bl) [5] of the same substance?
**A.** 0.376 µg/mL

**Q.** What about the IC80 neutralization (TZM.bl) [5] of the same substance?
**A.** > 50 µg/mL

**Q.** What about the IC50 neutralization (TZM.bl) [6] of the same substance?
**A.** 0.022 µg/mL

**Q.** And the IC80 neutralization (TZM.bl) [6]?
**A.** 0.143 µg/mL

**Q.** And the IC50 neutralization (TZM.bl) [7]?
**A.** 1.2 µg/mL

**Q.** And the IC80 neutralization (TZM.bl) [7]?
**A.** > 50 µg/mL

**Q.** N49P9.1 (antibody) was tested. Which neutralization IC50 [1] did it give?
**A.** > 50 µg/mL

**Q.** What about the neutralization IC80 [1] of the same substance?
**A.** > 50 µg/mL

**Q.** What about the neutralization MPI [1] of the same substance?
**A.** 23

**Q.** What about the neutralization IC50 [8] of the same substance?
**A.** 0.228 µg/mL

**Q.** What about the neutralization IC80 [8] of the same substance?
**A.** 0.921 µg/mL

**Q.** And the neutralization MPI [8]?
**A.** 100

**Q.** And the neutralization IC50 [2]?
**A.** 0.965 µg/mL

**Q.** What about the neutralization IC80 [2] of the same substance?
**A.** 3.93 µg/mL

**Q.** And the neutralization MPI [2]?
**A.** 100

**Q.** What about the neutralization IC50 [9] of the same substance?
**A.** > 50 µg/mL

**Q.** And the neutralization IC80 [9]?
**A.** > 50 µg/mL

**Q.** And the neutralization MPI [9]?
**A.** 7

**Q.** And the neutralization IC50 [10]?
**A.** > 50 µg/mL

**Q.** And the neutralization IC80 [10]?
**A.** > 50 µg/mL

**Q.** And the neutralization MPI [10]?
**A.** 26

**Q.** And the neutralization IC50 [3]?
**A.** 0.17 µg/mL

**Q.** What about the neutralization IC80 [3] of the same substance?
**A.** 0.579 µg/mL

**Q.** What about the neutralization MPI [3] of the same substance?
**A.** 100

**Q.** What about the neutralization IC50 [4] of the same substance?
**A.** 0.092 µg/mL

**Q.** And the neutralization IC80 [4]?
**A.** 0.286 µg/mL

**Q.** What about the neutralization MPI [4] of the same substance?
**A.** 100

**Q.** And the neutralization IC50 [5]?
**A.** 0.469 µg/mL

**Q.** And the neutralization IC80 [5]?
**A.** 1.52 µg/mL

**Q.** And the neutralization MPI [5]?
**A.** 100

**Q.** What about the neutralization IC50 [11] of the same substance?
**A.** 0.097 µg/mL

**Q.** What about the neutralization IC80 [11] of the same substance?
**A.** 0.259 µg/mL

**Q.** And the neutralization MPI [11]?
**A.** 100

**Q.** And the neutralization IC50 [6]?
**A.** 0.062 µg/mL

**Q.** What about the neutralization IC80 [6] of the same substance?
**A.** 0.218 µg/mL

**Q.** And the neutralization MPI [6]?
**A.** 100

**Q.** What about the neutralization IC50 [7] of the same substance?
**A.** 0.883 µg/mL

**Q.** And the neutralization IC80 [7]?
**A.** 4.26 µg/mL

**Q.** What about the neutralization MPI [7] of the same substance?
**A.** 100

**Q.** What does the source list for 10E8 (antibody)?
**A.** IC50 neutralization (TZM.bl) [1]: 1.11 µg/mL; IC80 neutralization (TZM.bl) [1]: 10 µg/mL; IC50 neutralization (TZM.bl) [2]: 1.57 µg/mL; IC80 neutralization (TZM.bl) [2]: 9.95 µg/mL; IC50 neutralization (TZM.bl) [3]: 1.09 µg/mL; IC80 neutralization (TZM.bl) [3]: 6.51 µg/mL; IC50 neutralization (TZM.bl) [4]: 0.778 µg/mL; IC80 neutralization (TZM.bl) [4]: 4.21 µg/mL; IC50 neutralization (TZM.bl) [5]: 0.057 µg/mL; IC80 neutralization (TZM.bl) [5]: 0.285 µg/mL; IC50 neutralization (TZM.bl) [6]: 1.62 µg/mL; IC80 neutralization (TZM.bl) [6]: 9.06 µg/mL; IC50 neutralization (TZM.bl) [7]: 0.341 µg/mL; IC80 neutralization (TZM.bl) [7]: 5.29 µg/mL
